Source: article PMC7652922

Assay: L-[14C]arginine to L-[14C]citrulline conversion, transfected HEK293, low glucose
Settings: glycan lost; control: WT-eNOS

B1: endothelial nitric oxide synthase (eNOS): T866A (protein)
parent chain: MGNLKSVAQEPGPPCGLGLGLGLGLCGKQGPATPAPEPSRAPASLLPPAPEHSPPSSPLTQPPEGPKFPRVKNWEVGSITYDTLSAQAQQDGPCTPRRCLGSLVFPRKLQGRPSPGPPAPEQLLSQARDFINQYYSSIKRSGSQAHEQRLQEVEAEVAATGTYQLRESELVFGAKQAWRNAPRCVGRIQWGKLQVFDARDCRSAQEMFTYICNHIKYATNRGNLRSAITVFPQRCPGRGDFRIWNSQLVRYAGYRQQDGSVRGDPANVEITELCIQHGWTPGNGRFDVLPLLLQAPDDPPELFLLPPELVLEVPLEHPTLEWFAALGLRWYALPAVSNMLLEIGGLEFPAAPFSGWYMSTEIGTRNLCDPHRYNILEDVAVCMDLDTRTTSSLWKDKAAVEINVAVLHSYQLAKVTIVDHHAATASFMKHLENEQKARGGCPADWAWIVPPISGSLTPVFHQEMVNYFLSPAFRYQPDPWKGSAAKGTGITRKKTFKEVANAVKISASLMGTVMAKRVKATILYGSETGRAQSYAQQLGRLFRKAFDPRVLCMDEYDVVSLEHETLVLVVTSTFGNGDPPENGESFAAALMEMSGPYNSSPRPEQHKSYKIRFNSISCSDPLVSSWRRKRKESSNTDSAGALGTLRFCVFGLGSRAYPHFCAFARAVDTRLEELGGERLLQLGQGDELCGQEEAFRGWAQAAFQAACETFCVGEDAKAAARDIFSPKRSWKRQRYRLSAQAEGLQLLPGLIHVHRRKMFQATIRSVENLQSSKSTRATILVRLDTGGQEGLQYQPGDHIGVCPPNRPGLVEALLSRVEDPPAPTEPVAVEQLEKGSPGGPPPGWVRDPRLPPCTLRQALTFFLDITSPPSPQLLRLLSTLAEEPREQQELEALSQDPRRYEEWKWFRCPTLLEVLEQFPSVALPAPLLLTQLPLLQPRYYSVSSAPSTHPGEIHLTVAVLAYRTQDGLGPLHYGVCSTWLSQLKPGDPVPCFIRGAPSFRLPPDPSLPCILVGPGTGIAPFRGFWQERLHDIESKGLQPTPMTLVFGCRCSQLDHLYRDEVQNAQQRGVFGRVLTAFSREPDNPKTYVQDILRTELAAEVHRVLCLERGHMFVCGDVTMATNVLQTVQRILATEGDMELDEAGDVIGVLRDQQRYHEDIFGLTLRTQEVTSRIRTQSFSLQERQLRGAVPWAFDPPGSDTNSP
  enzymatic_activity, fold_change: decreases, compared with T866A-eNOS, the activity of WT-eNOS was increased 8 to 10 folds
